± gives the uncertainty stated by the source.
B1: Dynamin-binding protein, residues 242 to 304; numbered along this chain, Q6XZF7 (parent)
chain: EEPGTYGVALYRFQALEPNELDFEVGDKIRILATLEDGWLEGSLKGRTGIFPYRFVKLCPDTR

Variants of: B1
Assay: abundance fitness (aPCA) (normalised: wild type 0, dead -1); higher = more abundant; growth selection in yeast, the domain comes from the species named
Conditions: Homo sapiens

| Variant | abundance fitness |
| --- | --- |
| L44S | -0.313 ± 0.072 |
| E20R | -0.258 ± 0.062 |
| R47E | 0.018 ± 0.11 |
| N19L | -0.52 ± 0.086 |
| A15T | 0.06 ± 0.072 |
| D22E | 0.043 ± 0.11 |
| E24R | -0.445 ± 0.07 |
| L21Y | -1.03 ± 0.26 |
| F23Q | -0.767 ± 0.39 |
| G49F | -0.735 ± 0.1 |
| E2T | -0.024 ± 0.076 |
| L21A | -1.01 ± 0.17 |
| G42K | -0.892 ± 0.19 |
| P60G | 0.003 ± 0.049 |
| I31P | -0.862 ± 0.2 |
| R12V | -0.508 ± 0.075 |
| P60W | -0.274 ± 0.16 |
| G38M | -0.803 ± 0.23 |
| R54L | -0.544 ± 0.091 |
| E41W | 0.056 ± 0.13 |
| G7W | -1.27 ± 0.41 |
| E36K | -0.099 ± 0.12 |
| E17I | -0.783 ± 0.12 |
| G42P | -0.872 ± 0.29 |

| Variant | abundance fitness |
| --- | --- |
| F51T | -0.681 ± 0.11 |
| T62N | 0.105 ± 0.052 |
| E20K | -0.068 ± 0.11 |
| K28Y | -0.519 ± 0.12 |
| D61M | -0.144 ± 0.11 |
| L40V | 0.092 ± 0.045 |
| F23A | -0.585 ± 0.1 |
| D27A | -0.426 ± 0.096 |
| W39M | -0.057 ± 0.14 |
| L58T | -0.301 ± 0.072 |
| P52M | -0.401 ± 0.23 |
| G4T | 0.103 ± 0.077 |
| F55T | -0.472 ± 0.047 |
| D37R | -0.59 ± 0.092 |
| G38F | -0.71 ± 0.11 |
| L35H | -0.114 ± 0.071 |
| E2H | 0.127 ± 0.069 |
| Y11F | 0.01 ± 0.048 |
| L21N | -0.843 ± 0.28 |
| L32G | -0.635 ± 0.074 |
| D22S | 0.101 ± 0.046 |
| F55E | -0.67 ± 0.1 |
| Q14R | -0.2 ± 0.061 |
| L58I | -0.055 ± 0.056 |

| Variant | abundance fitness |
| --- | --- |
| G7V | 0.006 ± 0.049 |
| G26Y | -0.847 ± 0.17 |
| K45P | -0.429 ± 0.13 |
| F23L | -0.136 ± 0.065 |
| G42L | -0.45 ± 0.1 |
| W39T | -0.492 ± 0.096 |
| L40M | -0.074 ± 0.12 |
| G4E | 0.622 ± 0.14 |
| D27E | -0.316 ± 0.15 |
| G4Q | 0.059 ± 0.15 |
| F23H | -0.787 ± 0.14 |
| G49V | -0.782 ± 0.088 |
| F51R | -0.655 ± 0.097 |
| L32Y | -0.744 ± 0.11 |
| L40R | -0.627 ± 0.08 |
| R30F | -0.462 ± 0.1 |
| P3E | -0.033 ± 0.35 |
| G26A | -0.86 ± 0.15 |
| R54G | -0.034 ± 0.046 |
| A9T | -0.623 ± 0.15 |
| Y11E | -0.02 ± 0.1 |
| D27G | -0.776 ± 0.083 |
| L16W | -0.501 ± 0.16 |
| Q14D | -0.264 ± 0.064 |

| Variant | abundance fitness |
| --- | --- |
| V56C | -0.864 ± 0.12 |
| I31H | -0.448 ± 0.097 |
| G4M | 0.283 ± 0.28 |
| A15M | -0.639 ± 0.31 |
| Y11N | -0.137 ± 0.057 |
| L32C | -0.657 ± 0.098 |
| L35C | -0.178 ± 0.053 |
| L44I | -0.133 ± 0.074 |
| E41C | -0.115 ± 0.065 |
| D27F | -0.799 ± 0.11 |
| T62F | -0.137 ± 0.057 |
| G7D | -0.857 ± 0.14 |
| T62Q | -0.092 ± 0.1 |
| G4C | -0.135 ± 0.057 |
| W39H | -0.749 ± 0.13 |
| I31L | -0.702 ± 0.097 |
| P60L | -0.434 ± 0.077 |
| F51D | -0.862 ± 0.17 |
| A9W | -0.6 ± 0.22 |
| E24Y | -0.423 ± 0.079 |
| A33G | -0.201 ± 0.059 |
| G46A | -0.647 ± 0.051 |
| E36T | -0.277 ± 0.089 |
| V25E | -0.475 ± 0.15 |

| Variant | abundance fitness |
| --- | --- |
| E41D | -0.732 ± 0.14 |
| P52W | -0.583 ± 0.22 |
| L58E | -0.708 ± 0.17 |
| R63I | -0.012 ± 0.061 |
| A33L | -0.644 ± 0.16 |
| P18Q | -0.042 ± 0.2 |
| Y53P | 0.37 ± 0.1 |
| G46Q | -0.753 ± 0.16 |
| T5I | -0.183 ± 0.065 |
| P52G | -0.534 ± 0.054 |
| T48W | -0.977 ± 0.29 |
| R47W | -0.676 ± 0.24 |
| R47G | -0.604 ± 0.068 |
| V25N | -0.736 ± 0.1 |
| E1G | -0.163 ± 0.067 |
| Y6L | -0.309 ± 0.066 |
| D22C | -0.125 ± 0.052 |
| T48G | -0.685 ± 0.095 |
| A9N | -0.812 ± 0.14 |
| Y6N | -0.785 ± 0.095 |
| L44C | -0.159 ± 0.076 |
| R63V | -0.056 ± 0.079 |
| R54I | -0.545 ± 0.13 |
| T5A | -0.083 ± 0.066 |

| Variant | abundance fitness |
| --- | --- |
| Y53H | -0.006 ± 0.082 |
| R47P | -1.09 ± 0.4 |
| R30S | -0.41 ± 0.062 |
| F23P | -1.09 ± 0.31 |
| I31N | -0.85 ± 0.15 |
| L21P | -0.782 ± 0.19 |
| G46P | -0.611 ± 0.081 |
| L40Q | -0.312 ± 0.2 |
| D27M | -0.537 ± 0.24 |
| F13D | -0.585 ± 0.086 |
| A33Q | -0.188 ± 0.14 |
| G26N | -0.563 ± 0.087 |
| E2K | -0.512 ± 0.22 |
| K57H | -0.136 ± 0.057 |
| D37C | -0.195 ± 0.059 |
| E17C | -0.259 ± 0.057 |
| V56S | -0.719 ± 0.08 |
| C59P | -0.546 ± 0.17 |
| D37S | -0.257 ± 0.057 |
| V56I | -0.141 ± 0.058 |
| V56G | -0.729 ± 0.075 |
| G49Y | -0.805 ± 0.13 |
| Y11P | -0.784 ± 0.16 |
| V25K | 0.095 ± 0.14 |

| Variant | abundance fitness |
| --- | --- |
| E1A | -0.512 ± 0.13 |
| V8I | 0.064 ± 0.061 |
| K45C | -0.429 ± 0.081 |
| F51V | -0.224 ± 0.055 |
| G46V | -0.6 ± 0.041 |
| R30L | -0.148 ± 0.089 |
| Q14W | -0.572 ± 0.18 |
| A9D | -1.01 ± 0.16 |
| E2M | -0.049 ± 0.15 |
| Y11Q | 0.026 ± 0.21 |
| Y11L | -0.084 ± 0.056 |
| R30P | -0.15 ± 0.17 |
| G38R | -0.482 ± 0.09 |
| L10W | -0.397 ± 0.15 |
| E1D | -0.369 ± 0.081 |
| C59R | -0.339 ± 0.062 |
| R54E | -0.057 ± 0.13 |
| R63A | 0.087 ± 0.073 |
| D22A | 0.25 ± 0.058 |
| F55P | -0.818 ± 0.074 |
| K57Q | -0.062 ± 0.1 |
| Y6S | -0.672 ± 0.073 |
| K57Y | -0.411 ± 0.059 |

From the Human Domainome abundance scans (Beltran et al. 2025)
